Experimental data: patent US20120288536

Biological target: pSTAT3 (tyrosine-phosphorylated STAT3) (UniProt P40763)
Assay: SPR
Conditions: PS x3 at 5' end of sense and 3' end of antisense; strands linked at one end by C-18 (18-atom hexa-ethyleneglycol) spacers; Langmuir 1:1, 4 C, 20 mM HEPES pH 7.0, 200 mM NaCl, 10 mM MgCl2

pSTAT3 (tyrosine-phosphorylated STAT3), sequence (P40763 whole entry): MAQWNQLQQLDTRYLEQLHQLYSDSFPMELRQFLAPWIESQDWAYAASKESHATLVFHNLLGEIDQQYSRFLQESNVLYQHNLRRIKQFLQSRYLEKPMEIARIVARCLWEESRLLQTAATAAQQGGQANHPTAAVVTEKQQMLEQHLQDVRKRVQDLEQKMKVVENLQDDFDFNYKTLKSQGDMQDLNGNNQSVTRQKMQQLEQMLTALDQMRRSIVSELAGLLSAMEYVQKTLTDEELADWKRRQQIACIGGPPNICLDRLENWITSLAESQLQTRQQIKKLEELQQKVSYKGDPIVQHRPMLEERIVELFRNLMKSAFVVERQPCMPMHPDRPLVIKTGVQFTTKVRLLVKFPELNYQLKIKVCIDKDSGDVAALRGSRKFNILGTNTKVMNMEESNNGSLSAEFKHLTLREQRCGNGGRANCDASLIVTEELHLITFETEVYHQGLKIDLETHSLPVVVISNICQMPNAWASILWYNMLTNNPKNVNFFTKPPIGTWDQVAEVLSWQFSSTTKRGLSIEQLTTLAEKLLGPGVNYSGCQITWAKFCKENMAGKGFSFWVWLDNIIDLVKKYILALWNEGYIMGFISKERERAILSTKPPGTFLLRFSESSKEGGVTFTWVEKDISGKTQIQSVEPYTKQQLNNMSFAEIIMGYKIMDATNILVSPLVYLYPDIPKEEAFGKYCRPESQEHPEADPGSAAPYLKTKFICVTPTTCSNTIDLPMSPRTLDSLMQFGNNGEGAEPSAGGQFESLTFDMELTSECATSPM

For CATTTCCCGTAAATC (double strand) [DS18], the Kd was 142 nM.
